Experimental data reported in patent US20170101476A1 (Novartis, published 2017).

T1: Cynomolgus CXCR2 (cynomolgus, UniProt Q28519 3-353 (rhesus entry))
T1 chain: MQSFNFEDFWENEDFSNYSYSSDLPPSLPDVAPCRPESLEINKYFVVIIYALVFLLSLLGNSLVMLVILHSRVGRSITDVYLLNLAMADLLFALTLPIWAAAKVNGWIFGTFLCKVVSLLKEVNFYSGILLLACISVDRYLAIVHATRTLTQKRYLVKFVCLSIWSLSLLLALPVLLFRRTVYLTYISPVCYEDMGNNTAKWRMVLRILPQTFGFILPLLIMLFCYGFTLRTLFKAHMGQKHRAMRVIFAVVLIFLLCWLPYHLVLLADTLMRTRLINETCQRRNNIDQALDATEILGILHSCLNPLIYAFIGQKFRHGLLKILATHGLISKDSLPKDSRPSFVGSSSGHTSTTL

T2: Human CXCR2 (human, UniProt P25025 1-360)
T2 sequence: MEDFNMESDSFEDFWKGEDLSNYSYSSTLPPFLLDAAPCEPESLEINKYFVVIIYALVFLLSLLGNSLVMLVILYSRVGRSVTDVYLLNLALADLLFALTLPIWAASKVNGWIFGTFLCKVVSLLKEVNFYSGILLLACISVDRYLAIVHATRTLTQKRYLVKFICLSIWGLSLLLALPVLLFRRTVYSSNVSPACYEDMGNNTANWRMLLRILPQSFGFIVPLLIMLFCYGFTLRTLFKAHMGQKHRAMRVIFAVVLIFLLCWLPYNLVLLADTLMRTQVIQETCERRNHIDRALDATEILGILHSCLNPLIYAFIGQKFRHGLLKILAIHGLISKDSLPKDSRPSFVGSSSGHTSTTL

B1: CXCR20017 (other, not shown: small tags and cut ends)
chain: EVQLVESGGGLVQPGGSLRLSCVASGSIVRINTMGWYRQTPGKQRELVADITSGGNINYIDAVKGRFTISRDNTKNTVYLQMNSLKPEDTAVYYCNAEIVVLVGVWTQRARTGNYWGQGTQVTVSSGGGGSGGGGSGGGGSGGGGSGGGGSGGGGSGGGGSEVQLVESGGGLVQPGGSVRLSCVASGIIFRLSALGWTRQGPGKAREWVAGINSDGTTNYADPVKGRFTISRDNAKNTIYLHMDMLKPEDTAVYYCASGKYRGQGTQVTVSS
B2: CXCR20021 (bispecific antibody, not shown: small tags and cut ends)
chain: EVQLVESGGGLVQAGESLRLSCAASGSTFDFKVMGWYRQPPGKQREGVAAIRLSGNMHYAESVKGRFTISKANAKNTVYLQMNSLRPEDTAVYYCKVNIRGQDYWGQGTQVTVSSGGGGSGGGGSGGGGSGGGGSGGGGSGGGGSGGGGSEVQLVESGGGLVQPGGSLRLSCVASGRIFSSNAMGWFRQAPGKEREFVAAITWRSGGSAYYADSAKGRFTISRDNAKNTVYLQMNSLKPEDTAVYYCAAGGSSWLSFPPDYWGQGTQVTVSS
B3: CXCR20013 (bispecific antibody, not shown: small tags and cut ends)
chain: EVQLVESGGELVQPGGSLRLSCAASGSILTINAMGWYRQAPGKQRELVVRRTRGGSTTYQDSVKGRFTISADIAKKTMYLQMNSLKPEDTAVYYCMLDDRGGVYWGQGTQVTVSSGGGGSGGGGSGGGGSGGGGSGGGGSGGGGSGGGGSEVQLVESGGGLVQPGGSLRLSCVASGSIVRINTMGWYRQTPGKQRELVADITSGGNINYIDAVKGRFTISRDNTKNTVYLQMNSLKPEDTAVYYCNAEIVVLVGVWTQRARTGNYWGQGTQVTVSS
B4: CXCR20032 (bispecific antibody, not shown: small tags and cut ends)
chain: EVQLVESGGELVQPGGSLRLSCAASGSILTINAMGWYRQAPGKQRELVVRRTRGGSTTYQDSVKGRFTISADIAKKTMYLQMNSLKPEDTAVYYCMLDDRGGVYWGQGTQVTVSSGGGGSGGGGSGGGGSGGGGSGGGGSGGGGSGGGGSEVQLVESGGGLVQAGGSLRLSCAASGRTFSDYAMGWFRQAPGKEREFVAAITWNGGRVFYTASVKGRFTISRDNAKNTMYLQMNSLKPEDTAVYYCAADKDRRTDYLGHPVAYWGQGTQVTVSS
B5: CXCR20016 (other, not shown: small tags and cut ends)
chain: EVQLVESGGGLVQPGGSVRLSCVASGIIFRLSALGWTRQGPGKAREWVAGINSDGTTNYADPVKGRFTISRDNAKNTIYLHMDMLKPEDTAVYYCASGKYRGQGTQVTVSSGGGGSGGGGSGGGGSGGGGSGGGGSGGGGSGGGGSEVQLVESGGELVQPGGSLRLSCAASGSILTINAMGWYRQAPGKQRELVVRRTRGGSTTYQDSVKGRFTISADIAKKTMYLQMNSLKPEDTAVYYCMLDDRGGVYWGQGTQVTVSS
B6: CXCR20029 (other, not shown: small tags and cut ends)
chain: EVQLVESGGGLVQPGGSLRLSCVASGRIFSSNAMGWFRQAPGKEREFVAAITWRSGGSAYYADSAKGRFTISRDNAKNTVYLQMNSLKPEDTAVYYCAAGGSSWLSFPPDYWGQGTQVTVSSGGGGSGGGGSGGGGSGGGGSGGGGSGGGGSGGGGSEVQLVESGGGLVQAGGSLTLSCAVSGSTFRINTMGWYRRAPGKQRELVAARDRGGYINYVDSVKGRFTVSRDNAKPTMYLQMNSLKPEDTAVYYCHAGTQDRTGRNFDRWGQGTQVTVSS
B7: CXCR20025 (bispecific antibody, not shown: small tags and cut ends)
chain: EVQLVESGGGLVQAGGSLRLSCAASGRTFSDYAMGWFRQAPGKEREFVAAITWNGGRVFYTASVKGRFTISRDNAKNTMYLQMNSLKPEDTAVYYCAADKDRRTDYLGHPVAYWGQGTQVTVSSGGGGSGGGGSGGGGSGGGGSGGGGSGGGGSGGGGSEVQLVESGGGLVQAGESLRLSCAASGSTFDFKVMGWYRQPPGKQREGVAAIRLSGNMHYAESVKGRFTISKANAKNTVYLQMNSLRPEDTAVYYCKVNIRGQDYWGQGTQVTVSS
B8: CXCR20027 (bispecific antibody, not shown: small tags and cut ends)
chain: EVQLVESGGGLVQPGGSLRLSCVASGRIFSSNAMGWFRQAPGKEREFVAAITWRSGGSAYYADSAKGRFTISRDNAKNTVYLQMNSLKPEDTAVYYCAAGGSSWLSFPPDYWGQGTQVTVSSGGGGSGGGGSGGGGSGGGGSGGGGSGGGGSGGGGSEVQLVESGGGLVQAGGSLRLSCAASGRTFSDYAMGWFRQAPGKEREFVAAITWNGGRVFYTASVKGRFTISRDNAKNTMYLQMNSLKPEDTAVYYCAADKDRRTDYLGHPVAYWGQGTQVTVSS
B9: CXCR20031 (bispecific antibody, not shown: small tags and cut ends)
chain: EVQLVESGGELVQPGGSLRLSCAASGSILTINAMGWYRQAPGKQRELVVRRTRGGSTTYQDSVKGRFTISADIAKKTMYLQMNSLKPEDTAVYYCMLDDRGGVYWGQGTQVTVSSGGGGSGGGGSGGGGSGGGGSGGGGSGGGGSGGGGSEVQLVESGGGLVQPGGSLRLSCVASGRIFSSNAMGWFRQAPGKEREFVAAITWRSGGSAYYADSAKGRFTISRDNAKNTVYLQMNSLKPEDTAVYYCAAGGSSWLSFPPDYWGQGTQVTVSS
B10: CXCR20022 (VHH, not shown: small tags and cut ends)
chain: EVQLVESGGGLVQAGGSLRLSCAASGRTFSDYAMGWFRQAPGKEREFVAAITWNGGRVFYTASVKGRFTISRDNAKNTMYLQMNSLKPEDTAVYYCAADKDRRTDYLGHPVAYWGQGTQVTVSSGGGGSGGGGSGGGGSGGGGSGGGGSGGGGSGGGGSEVQLVESGGGLVQAGGSLRLSCAASGRTFSDYAMGWFRQAPGKEREFVAAITWNGGRVFYTASVKGRFTISRDNAKNTMYLQMNSLKPEDTAVYYCAADKDRRTDYLGHPVAYWGQGTQVTVSS
B11: CXCR20015 (other, not shown: small tags and cut ends)
chain: EVQLVESGGELVQPGGSLRLSCAASGSILTINAMGWYRQAPGKQRELVVRRTRGGSTTYQDSVKGRFTISADIAKKTMYLQMNSLKPEDTAVYYCMLDDRGGVYWGQGTQVTVSSGGGGSGGGGSGGGGSGGGGSGGGGSGGGGSGGGGSEVQLVESGGGLVQPGGSVRLSCVASGIIFRLSALGWTRQGPGKAREWVAGINSDGTTNYADPVKGRFTISRDNAKNTIYLHMDMLKPEDTAVYYCASGKYRGQGTQVTVSS
B12: CXCR20036 (other, not shown: small tags and cut ends)
chain: EVQLVESGGGLVQAGGSLTLSCAVSGSTFRINTMGWYRRAPGKQRELVAARDRGGYINYVDSVKGRFTVSRDNAKPTMYLQMNSLKPEDTAVYYCHAGTQDRTGRNFDRWGQGTQVTVSSGGGGSGGGGSGGGGSGGGGSGGGGSGGGGSGGGGSEVQLVESGGGLVQAGGSLRLSCAASGRTFSDYAMGWFRQAPGKEREFVAAITWNGGRVFYTASVKGRFTISRDNAKNTMYLQMNSLKPEDTAVYYCAADKDRRTDYLGHPVAYWGQGTQVTVSS
B13: CXCR20024 (VHH, not shown: small tags and cut ends)
chain: EVQLVESGGGLVQPGGSLRLSCVASGRIFSSNAMGWFRQAPGKEREFVAAITWRSGGSAYYADSAKGRFTISRDNAKNTVYLQMNSLKPEDTAVYYCAAGGSSWLSFPPDYWGQGTQVTVSSGGGGSGGGGSGGGGSGGGGSGGGGSGGGGSGGGGSEVQLVESGGGLVQPGGSLRLSCVASGRIFSSNAMGWFRQAPGKEREFVAAITWRSGGSAYYADSAKGRFTISRDNAKNTVYLQMNSLKPEDTAVYYCAAGGSSWLSFPPDYWGQGTQVTVSS
B14: CXCR20011 (VHH, not shown: small tags and cut ends)
chain: EVQLVESGGGLVQPGGSLRLSCVASGSIVRINTMGWYRQTPGKQRELVADITSGGNINYIDAVKGRFTISRDNTKNTVYLQMNSLKPEDTAVYYCNAEIVVLVGVWTQRARTGNYWGQGTQVTVSSGGGGSGGGGSGGGGSGGGGSGGGGSGGGGSGGGGSEVQLVESGGGLVQPGGSLRLSCVASGSIVRINTMGWYRQTPGKQRELVADITSGGNINYIDAVKGRFTISRDNTKNTVYLQMNSLKPEDTAVYYCNAEIVVLVGVWTQRARTGNYWGQGTQVTVSS

Biological target: T1, Cynomolgus CXCR2
Test: cell-based or functional assay

FLIPR IC50, GRO-α induced intracellular calcium release | Binder
1080 nM | B1
2.31 nM | B2
29.2 nM | B3
3.65 nM | B4
1100 nM | B5
10.1 nM | B6
7.88 nM | B7
12.7 nM | B8
4.26 nM | B9
8.64 nM | B10
2870 nM | B11
4.27 nM | B12
11.8 nM | B13

biological target: T2, Human CXCR2; test: cell-based or functional assay

FLIPR IC50, GRO-α induced intracellular calcium release | Binder
22.9 nM | B1
7.32 nM | B2
2.93 nM | B3
14.7 nM | B4
2.36 nM | B5
17.1 nM | B6
12.2 nM | B7
17.8 nM | B8
15.2 nM | B9
9.34 nM | B10
2.78 nM | B11
7.86 nM | B12
137 nM | B14
26.4 nM | B13

biological target: T2, Human CXCR2; test: cell-based or functional assay; remark: another data set of the same source

[35S]GTPγS % inhibition of max, ENA-78 | [35S]GTPγS % inhibition of max, GRO-α | [35S]GTPγS % inhibition of max, IL-8 | [35S]GTPγS accumulation IC50, ENA-78 | [35S]GTPγS accumulation IC50, GRO-α | [35S]GTPγS accumulation IC50, IL-8 | Binder
100% | 100% | 100% | 787 pM | 0.551 nM | 827 pM | B2
100% |  | 100% | 116 pM |  | 997 pM | B4
 | 100% |  |  | 0.891 nM |  | B7
100% |  | 100% | 1380 pM |  | 840 pM | B9
 | 100% |  |  | 28.5 nM |  | B10
 | 100% |  |  | 30.3 nM |  | B13
